Experiments:
CC(=O)CC(=O)O = assay: purified protein; details: 1 mM succinyl-CoA, pH 8.6, 37 °C, 15 mM MgCl2
[1] = tested on: CC(C)(COP(=O)(O)OP(=O)(O)OC[C@H]1O[C@@H](n2cnc3c(N)ncnc32)[C@H](O)[C@@H]1OP(=O)(O)O)[C@@H](O)C(=O)NCCC(=O)NCCSC(=O)CCC(=O)O; assay: purified protein; details: acetoacetate co-substrate, pH 8.6, 37 °C, 15 mM MgCl2

HsSCOT (Homo sapiens)
Km (CC(=O)CC(=O)O): 765 µM | kcat (CC(=O)CC(=O)O): 105 s⁻¹ | Km [1]: 971 µM | kcat [1]: 190 s⁻¹

— PMC7402102
